Source: patent publication US20040241164A1 (published 2004)

Target: T1, Soluble Aβ 1-40 (UniProt P05067 672-711)
T1 construct: domain: Aβ 1-40; Unaggregated, predominantly monomeric peptide flowed over captured antibody; The numbers 1-40 count on the Aβ peptide, not on the APP precursor
Assay: BIAcore SPR, alternate method: antibody captured on protein A or A/G, Aβ 1-40 in flow, 5 hour dissociation, 1:1 model with mass transfer; alternate method: antibody captured on protein A or A/G, 5 hour dissociation
Protocol: Protein A or protein A/G is immobilized via amine coupling to flow cells 1 and 2 of a B1 or CM5 sensor chip (BIAcore). The test antibody is then captured in flow cell 2 at desired levels (usually a 10-60 second injection of antibody) and 5 minutes is allowed for the antibody to stabilize. […] Each concentration is injected over the surface for 5 minutes at a flow rate of 50 μL/min. […] Aβ 1-40 and antibody are then eluted from both flow cells with a 40 second injection of glycine (pH 1.5). The signal is allowed to stabilize for 2 minutes before the next cycle. The data from flow cell 1 is subtracted from flow cell 2 to account for any bulk shifts due to buffer differences or non-specific binding to the sensor chip or protein A. The various concentrations are injected randomly and each concentration is run in duplicate. Two 0 nM runs are used to control for any dissociation of antibody from the protein A or A/G capture surface. The data is analyzed using the Biaevalution software. A 1:1 model with mass transfer and a local Rmax is used as the best fit for the data.

B1: humanized 266 antibody (antibody, human IgG1, kappa, V domains shown)
VH: EVQLVESGGGLVQPGGSLRLSCAASGFTFSRYSMSWVRQAPGKGLELVAQINSVGNSTYYPDTVKGRFTISRDNAKNTLYLQMNSLRAEDTAVYYCASGDYWGQGTLVTVSS
VL: DVVMTQSPLSLPVTLGQPASISCRSSQSLIYSDGNAYLHWFLQKPGQSPRLLIYKVSNRFSGVPDRFSGSGSGTDFTLKISRVEAEDVGVYYCSQSTHVPWTFGQGTKVEIKR
Kd: 0.4 nM
